Test results as given in article PMC10397247.

Tests used:
O8 = biological target: T1, O8; test: two-hybrid library CCNG1;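 note: natural log of median RNA to DNA barcode read ratio; higher means stronger binding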
T1 chain: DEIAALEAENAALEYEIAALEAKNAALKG

O9 [1] = biological target: T2, O9; test: two-hybrid library CCNG1;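 note: natural log of median RNA to DNA barcode read ratio; higher means stronger binding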
T2 chain: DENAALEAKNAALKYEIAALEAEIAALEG

4H338-bH = biological target: T3, 4H338-bH; test: two-hybrid library CCNG1;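 note: natural log of median RNA to DNA barcode read ratio; higher means stronger binding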
T3 chain: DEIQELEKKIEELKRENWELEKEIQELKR

4H3427-bH = biological target: T4, 4H3427-bH; test: two-hybrid library CCNG1;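 note: natural log of median RNA to DNA barcode read ratio; higher means stronger binding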
T4 chain: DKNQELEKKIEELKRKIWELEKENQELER

4H3782-bH = biological target: T5, 4H3782-bH; test: two-hybrid library CCNG1;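 note: natural log of median RNA to DNA barcode read ratio; higher means stronger binding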
T5 chain: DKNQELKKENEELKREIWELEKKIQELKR

4H3855-bH = biological target: T6, 4H3855-bH; test: two-hybrid library CCNG1;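 note: natural log of median RNA to DNA barcode read ratio; higher means stronger binding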
T6 chain: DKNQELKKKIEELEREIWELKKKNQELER

4H3926-bA = biological target: T7, 4H3926-bA; test: two-hybrid library CCNG1
T7 chain: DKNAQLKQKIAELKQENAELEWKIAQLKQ

4H4001-bH = biological target: T8, 4H4001-bH; test: two-hybrid library CCNG1
T8 chain: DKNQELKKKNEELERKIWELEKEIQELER

4H454-bH = biological target: T9, 4H454-bH; test: two-hybrid library CCNG1
T9 chain: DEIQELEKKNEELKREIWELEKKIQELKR

4H568-bH = biological target: T10, 4H568-bH; test: two-hybrid library CCNG1
T10 chain: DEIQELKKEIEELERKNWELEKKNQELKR

4H607-bH = biological target: T11, 4H607-bH; test: two-hybrid library CCNG1
T11 chain: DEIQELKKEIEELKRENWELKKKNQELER

4H687-bH = biological target: T12, 4H687-bH; test: two-hybrid library CCNG1
T12 chain: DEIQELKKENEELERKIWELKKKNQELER

4H717-bH = biological target: T13, 4H717-bH; test: two-hybrid library CCNG1
T13 chain: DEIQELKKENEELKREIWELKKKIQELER

4H72-bH = biological target: T14, 4H72-bH; test: two-hybrid library CCNG1
T14 chain: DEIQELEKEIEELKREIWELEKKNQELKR

4H754-bH = biological target: T15, 4H754-bH; test: two-hybrid library CCNG1
T15 chain: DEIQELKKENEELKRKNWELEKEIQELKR

4H797-bH = biological target: T16, 4H797-bH; test: two-hybrid library CCNG1
T16 chain: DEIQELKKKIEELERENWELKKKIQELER

4H883-bH = biological target: T17, 4H883-bH; test: two-hybrid library CCNG1
T17 chain: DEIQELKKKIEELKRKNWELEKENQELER

4H908-bH = biological target: T18, 4H908-bH; test: two-hybrid library CCNG1
T18 chain: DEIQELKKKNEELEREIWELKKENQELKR

4H918-bH = biological target: T19, 4H918-bH; test: two-hybrid library CCNG1
T19 chain: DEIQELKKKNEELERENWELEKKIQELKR

4H953-bH = biological target: T20, 4H953-bH; test: two-hybrid library CCNG1
T20 chain: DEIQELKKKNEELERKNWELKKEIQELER

4H967-bH = biological target: T21, 4H967-bH; test: two-hybrid library CCNG1
T21 chain: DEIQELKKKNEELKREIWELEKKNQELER

4H348-bH = biological target: T22, 4H348-bH; test: two-hybrid library CCNG1
T22 chain: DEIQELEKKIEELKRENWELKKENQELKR

4H40-bH = biological target: T23, 4H40-bH; test: two-hybrid library CCNG1
T23 chain: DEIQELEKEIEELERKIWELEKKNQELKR

4H477-bH = biological target: T24, 4H477-bH; test: two-hybrid library CCNG1
T24 chain: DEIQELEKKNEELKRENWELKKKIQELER

4H492-bH = biological target: T25, 4H492-bH; test: two-hybrid library CCNG1
T25 chain: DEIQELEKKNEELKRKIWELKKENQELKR

4H741-bH = biological target: T26, 4H741-bH; test: two-hybrid library CCNG1
T26 chain: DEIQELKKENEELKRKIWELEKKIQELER

O9 [2] = biological target: T27, O9; test: two-hybrid library CC0; settings: mean of both orientations
T27 chain: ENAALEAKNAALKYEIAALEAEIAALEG

With DEIAALEAENAALEYEIAALEAKNAALKG [O8] the interaction score (O8) was -2.07 and the interaction score (O9 [1]) was -1.9.

DEIQELEKKIEELKRENWELEKEIQELKR [4H338-bH] showed an interaction score (4H338-bH) of 1.76, an interaction score (4H3427-bH) of 0.373 and an interaction score (4H3782-bH) of -0.321. It also gave an interaction score (4H3855-bH) of 0.141, an interaction score (4H3926-bA) of 1.81 and an interaction score (4H4001-bH) of 0.346. The interaction score (4H454-bH) was 1.38, the interaction score (4H568-bH) was 0.785 and the interaction score (4H607-bH) was 0.393. It also gave an interaction score (4H687-bH) of -0.366, an interaction score (4H717-bH) of 0.186 and an interaction score (4H72-bH) of -1.44. It also gave an interaction score (4H754-bH) of 0.366, an interaction score (4H797-bH) of -0.318 and an interaction score (4H883-bH) of 0.0489. For the same binder, the interaction score (4H908-bH) was -3.02, the interaction score (4H918-bH) was -0.137 and the interaction score (4H953-bH) was 1.25. It also gave an interaction score (4H967-bH) of 0.908.

With DEIQELEKKIEELKRENWELKKENQELKR [4H348-bH] the interaction score (4H348-bH) was 0.666, the interaction score (4H40-bH) was -0.14 and the interaction score (4H477-bH) was 0.107. The interaction score (4H492-bH) was -0.683 and the interaction score (4H741-bH) was 1.04.

ENAALEAKNAALKYEIAALEAEIAALEG [O9] gave an interaction score (O9 [2]) of -2.72.
